Measurements reported in patent US20080227735, “Aptamers Selected From Live Tumor Cells and the Use Thereof” (COMMISSARIAT A L'ENERGIE ATOMIQUE, published 2008).

Assays:
[1] = target: T1, Ret receptor tyrosine kinase C634Y (RetC634Y) on PC12 MEN 2A cells (Homo sapiens, UniProt P07949 P07949:29-1114, C634Y); test: whole PC12 MEN 2A cells, RPMI, 37C, 10 min, polyinosine; 110 ± 47 x1000 targets/cell; no binding to parental PC12, NBTII or HeLa cells lacking Ret; conditions: tags: stably transfected in rat PC12 cells; constitutive homodimer; chain copies: 2 (inferred); stem-loop with internal loops (predicted)
Description: (§1) The binding of the various aptamers (or of the initial pool, as control) to the PC12 MEN 2A cells is carried out in 24-well plates (experiments carried out in triplicate), with 5′-³²P-labeled RNA. 10⁵ cells per well are incubated with various concentrations of aptamers in 200 μl of RPMI for 10 min at 37° C. in the presence of 100 μg/ml of polyinosine, as non-specific competitor. After several washes, the bound sequences are recovered in 350 μl of 0.6% SDS and the amount of radioactivity recovered is related to the number of cells by measuring the protein content in each well.

[2] = target: T1, Ret receptor tyrosine kinase C634Y …; test: whole PC12 MEN 2A cells, RPMI, 37C; 102 ± 25 x1000 targets/cell; competes with D4 (p188); conditions: tags: stably transfected in rat PC12 cells; constitutive homodimer; chain copies: 2 (inferred); label: 5'-32P
Description: as §1

[3] = target: T1, Ret receptor tyrosine kinase C634Y …; test: whole PC12 MEN 2A cells, RPMI, 37C, 10 min, polyinosine competitor; target on cell not directly proven; 102 ± 58 x1000 targets/cell; conditions: tags: stably transfected in rat PC12 cells; constitutive homodimer; chain copies: 2 (inferred); label: 5'-32P; stem-loop with internal loops (predicted)
Description: as §1

T1 sequence (P07949 29-1114 C634Y, one chain of several): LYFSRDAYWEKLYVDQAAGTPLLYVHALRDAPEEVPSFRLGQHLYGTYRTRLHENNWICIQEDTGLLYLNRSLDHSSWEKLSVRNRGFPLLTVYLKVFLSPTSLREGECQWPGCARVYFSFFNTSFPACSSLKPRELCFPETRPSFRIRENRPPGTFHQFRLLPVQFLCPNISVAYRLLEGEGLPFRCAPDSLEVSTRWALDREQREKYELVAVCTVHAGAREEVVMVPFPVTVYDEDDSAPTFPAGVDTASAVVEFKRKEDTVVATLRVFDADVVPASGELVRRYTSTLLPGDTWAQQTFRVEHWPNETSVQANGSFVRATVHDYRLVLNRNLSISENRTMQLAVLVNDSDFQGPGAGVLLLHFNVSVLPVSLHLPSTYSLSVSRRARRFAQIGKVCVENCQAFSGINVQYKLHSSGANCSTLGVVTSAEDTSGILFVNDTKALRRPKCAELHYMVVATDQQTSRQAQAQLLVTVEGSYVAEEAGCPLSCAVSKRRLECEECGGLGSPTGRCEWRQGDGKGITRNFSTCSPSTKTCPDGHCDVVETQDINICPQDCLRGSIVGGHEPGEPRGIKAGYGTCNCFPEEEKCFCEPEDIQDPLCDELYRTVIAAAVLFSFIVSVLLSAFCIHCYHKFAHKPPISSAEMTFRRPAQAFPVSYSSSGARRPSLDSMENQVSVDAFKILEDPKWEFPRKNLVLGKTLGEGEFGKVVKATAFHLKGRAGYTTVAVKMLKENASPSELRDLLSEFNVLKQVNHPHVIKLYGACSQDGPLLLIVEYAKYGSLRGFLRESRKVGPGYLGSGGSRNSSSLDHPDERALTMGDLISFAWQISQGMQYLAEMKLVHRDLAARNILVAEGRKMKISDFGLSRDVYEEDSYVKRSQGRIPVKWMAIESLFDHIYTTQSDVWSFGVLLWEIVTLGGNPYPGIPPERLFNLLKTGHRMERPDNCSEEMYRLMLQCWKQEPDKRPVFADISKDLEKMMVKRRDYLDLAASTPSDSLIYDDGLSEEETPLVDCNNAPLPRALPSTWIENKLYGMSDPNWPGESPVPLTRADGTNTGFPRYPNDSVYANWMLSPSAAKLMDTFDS

B1: D4 (ssRNA)
RNA: GGGAGACAAGAAUAAACGCUCAAGCGCGGGAAUAGUAUGGAAGGAUACGUAUACCGUGCAAUCCAGGGCAACGAACGACAGGAGGCUCACAACAGGA
modifications: 2'-F pyrimidines (all C and U)
With B1 as the binder, how does the Kd [1] read?
The Kd was 35 nM.

B2: D12 (ssRNA)
RNA: GGGAGACAAGAAUAAACGCUCAAGGGCUUCAUAAGCUACACCGGCCAACGCAGAAAUGCCUUAAGCCCGAGUUAACGACAGGAGGCUCACAACAGGA
modifications: 2'-F pyrimidines (all C and U)
Which Kd [2] does the source give for B2 here?
Its Kd is 67 nM.

B3: D24 (ssRNA)
RNA: GGGAGACAAGAAUAAACGCUCAAGCGGUAUGUAGGGAAUAGCACUUUUUUUGCGUAUACCUACACCGCAGCGAACGACAGGAGGCUCACAACAGGA
modifications: 2'-F pyrimidines (all C and U)
B3 was tested. Which Kd [3] did it give?
Its Kd is 32 nM.
